Target: FAM-LIG1(118–130)K126me2 peptide (human)
Assay: fluorescence polarisation; FAM-labelled peptide with GST-tagged domains or MBP-tagged full-length UHRF1; as described in ref. 4, plotted as change in anisotropy

ratio of its dissociation constant to that of the UHRF1 TTD: 70 fold
Substance: GST-tagged chromodomain Y-like protein isoform 2 (CDYL1b) chromodomain (domain or fragment)
